Reference: patent US20210032299A1
Starred links: 1 amine or outer side, 2 acyl side, 3 side chain; linkers in the order of their positions; H or OH if unused. Non-standard residues stand in square brackets, D forms with d. Groups on a side chain read outwards from the residue. No end group written: not given here. *: point of attachment. C20 diacid = O=C(O)CCCCCCCCCCCCCCCCCCC(=O)*; C18 diacid = O=C(O)CCCCCCCCCCCCCCCCC(=O)*; αMePhe(2-F) = C[C@](N)(Cc1ccccc1F)C(=O)O; γGlu = O=C(O)[C@H](CCC(=O)[*:2])N[*:1]; 4Pal = N[C@@H](Cc1ccncc1)C(=O)O; αMeL = CC(C)C[C@](C)(N)C(=O)O; Orn = NCCC[C@H](N)C(=O)O; AEEA = NCCOCCOCC(=O)O; Aib = CC(C)(N)C(=O)O

Molecular target: T1, human glucose-dependent insulinotropic polypeptide (GIP) receptor (human), P48546
T1 chain: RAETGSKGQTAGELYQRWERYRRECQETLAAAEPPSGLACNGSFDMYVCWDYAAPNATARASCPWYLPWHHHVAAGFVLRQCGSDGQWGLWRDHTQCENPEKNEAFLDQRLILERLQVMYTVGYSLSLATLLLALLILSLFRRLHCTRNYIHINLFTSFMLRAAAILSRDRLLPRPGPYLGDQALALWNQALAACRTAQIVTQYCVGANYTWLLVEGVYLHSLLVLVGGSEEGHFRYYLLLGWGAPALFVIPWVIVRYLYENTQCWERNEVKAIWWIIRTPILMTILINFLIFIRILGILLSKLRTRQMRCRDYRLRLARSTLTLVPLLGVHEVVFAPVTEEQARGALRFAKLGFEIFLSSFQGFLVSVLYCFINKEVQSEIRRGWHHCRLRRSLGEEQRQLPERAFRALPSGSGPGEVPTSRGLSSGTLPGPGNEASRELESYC
Assay: SPA, displacement of [125I]-GIP from hGIPR membranes, 0.1% bacitracin

| Binder | Ki [nM] |
| --- | --- |
| Y[Aib]EGTFISDYSI[αMeL]LDKIRQ[Aib]DFVEYK([AEEA-AEEA-γGlu-C20 diacid])LEAGPSSGAPPPS-NH2 (N-terminus assumed; SMILES CC[C@H](C)[C@H](NC(=O)[C@H](CCCCN)NC(=O)[C@H](CC(=O)O)NC(=O)[C@H](CC(C)C)NC(=O)[C@](C)(CC(C)C)NC(=O)[C@@H](NC(=O)[C@H](CO)NC(=O)[C@H](Cc1ccc(O)cc1)NC(=O)[C@H](CC(=O)O)NC(=O)[C@H](CO)NC(=O)[C@@H](NC(=O)[C@H](Cc1ccccc1)NC(=O)[C@@H](NC(=O)CNC(=O)[C@H](CCC(=O)O)NC(=O)C(C)(C)NC(=O)[C@@H](N)Cc1ccc(O)cc1)[C@@H](C)O)[C@@H](C)CC)[C@@H](C)CC)C(=O)N[C@@H](CCCNC(=N)N)C(=O)N[C@@H](CCC(N)=O)C(=O)NC(C)(C)C(=O)N[C@@H](CC(=O)O)C(=O)N[C@@H](Cc1ccccc1)C(=O)N[C@H](C(=O)N[C@@H](CCC(=O)O)C(=O)N[C@@H](Cc1ccc(O)cc1)C(=O)N[C@@H](CCCCNC(=O)COCCOCCNC(=O)COCCOCCNC(=O)CC[C@H](NC(=O)CCCCCCCCCCCCCCCCCCC(=O)O)C(=O)O)C(=O)N[C@@H](CC(C)C)C(=O)N[C@@H](CCC(=O)O)C(=O)N[C@@H](C)C(=O)NCC(=O)N1CCC[C@H]1C(=O)N[C@@H](CO)C(=O)N[C@@H](CO)C(=O)NCC(=O)N[C@@H](C)C(=O)N1CCC[C@H]1C(=O)N1CCC[C@H]1C(=O)N1CCC[C@H]1C(=O)N[C@@H](CO)C(N)=O)C(C)C) [Example 118] | 0.0696 |
| Y[Aib]EGT[αMePhe(2-F)]ISDYSIALDKIHQ[Aib]DFVE[4Pal]K([AEEA-AEEA-γGlu-C20 diacid])LEQGPSSGAPPPS-NH2 (N-terminus assumed; SMILES CC[C@H](C)[C@H](NC(=O)[C@H](CO)NC(=O)[C@H](Cc1ccc(O)cc1)NC(=O)[C@H](CC(=O)O)NC(=O)[C@H](CO)NC(=O)[C@@H](NC(=O)[C@](C)(Cc1ccccc1F)NC(=O)[C@@H](NC(=O)CNC(=O)[C@H](CCC(=O)O)NC(=O)C(C)(C)NC(=O)[C@@H](N)Cc1ccc(O)cc1)[C@@H](C)O)[C@@H](C)CC)C(=O)N[C@@H](C)C(=O)N[C@@H](CC(C)C)C(=O)N[C@@H](CC(=O)O)C(=O)N[C@@H](CCCCN)C(=O)N[C@H](C(=O)N[C@@H](Cc1c[nH]cn1)C(=O)N[C@@H](CCC(N)=O)C(=O)NC(C)(C)C(=O)N[C@@H](CC(=O)O)C(=O)N[C@@H](Cc1ccccc1)C(=O)N[C@H](C(=O)N[C@@H](CCC(=O)O)C(=O)N[C@@H](Cc1ccncc1)C(=O)N[C@@H](CCCCNC(=O)COCCOCCNC(=O)COCCOCCNC(=O)CC[C@H](NC(=O)CCCCCCCCCCCCCCCCCCC(=O)O)C(=O)O)C(=O)N[C@@H](CC(C)C)C(=O)N[C@@H](CCC(=O)O)C(=O)N[C@@H](CCC(N)=O)C(=O)NCC(=O)N1CCC[C@H]1C(=O)N[C@@H](CO)C(=O)N[C@@H](CO)C(=O)NCC(=O)N[C@@H](C)C(=O)N1CCC[C@H]1C(=O)N1CCC[C@H]1C(=O)N1CCC[C@H]1C(=O)N[C@@H](CO)C(N)=O)C(C)C)[C@@H](C)CC) [Example 114] | 0.121 |
| Y[Aib]EGTFISDYSI[αMeL]LDKIHQ[Aib]DFVE[4Pal]K([AEEA-AEEA-γGlu-C18 diacid])LEGGPSSGAPPPS-NH2 (N-terminus assumed; SMILES CC[C@H](C)[C@H](NC(=O)[C@H](CCCCN)NC(=O)[C@H](CC(=O)O)NC(=O)[C@H](CC(C)C)NC(=O)[C@](C)(CC(C)C)NC(=O)[C@@H](NC(=O)[C@H](CO)NC(=O)[C@H](Cc1ccc(O)cc1)NC(=O)[C@H](CC(=O)O)NC(=O)[C@H](CO)NC(=O)[C@@H](NC(=O)[C@H](Cc1ccccc1)NC(=O)[C@@H](NC(=O)CNC(=O)[C@H](CCC(=O)O)NC(=O)C(C)(C)NC(=O)[C@@H](N)Cc1ccc(O)cc1)[C@@H](C)O)[C@@H](C)CC)[C@@H](C)CC)C(=O)N[C@@H](Cc1c[nH]cn1)C(=O)N[C@@H](CCC(N)=O)C(=O)NC(C)(C)C(=O)N[C@@H](CC(=O)O)C(=O)N[C@@H](Cc1ccccc1)C(=O)N[C@H](C(=O)N[C@@H](CCC(=O)O)C(=O)N[C@@H](Cc1ccncc1)C(=O)N[C@@H](CCCCNC(=O)COCCOCCNC(=O)COCCOCCNC(=O)CC[C@H](NC(=O)CCCCCCCCCCCCCCCCC(=O)O)C(=O)O)C(=O)N[C@@H](CC(C)C)C(=O)N[C@@H](CCC(=O)O)C(=O)NCC(=O)NCC(=O)N1CCC[C@H]1C(=O)N[C@@H](CO)C(=O)N[C@@H](CO)C(=O)NCC(=O)N[C@@H](C)C(=O)N1CCC[C@H]1C(=O)N1CCC[C@H]1C(=O)N1CCC[C@H]1C(=O)N[C@@H](CO)C(N)=O)C(C)C) [Example 110] | 0.339 |
| Y[Aib]EGTFISDYSI[αMeL]LD[Orn]IHQ[Aib]DFVE[4Pal]K([AEEA-AEEA-γGlu-C18 diacid])LEGGPSSGAPPPS-NH2 (N-terminus assumed; SMILES CC[C@H](C)[C@H](NC(=O)[C@H](CCCN)NC(=O)[C@H](CC(=O)O)NC(=O)[C@H](CC(C)C)NC(=O)[C@](C)(CC(C)C)NC(=O)[C@@H](NC(=O)[C@H](CO)NC(=O)[C@H](Cc1ccc(O)cc1)NC(=O)[C@H](CC(=O)O)NC(=O)[C@H](CO)NC(=O)[C@@H](NC(=O)[C@H](Cc1ccccc1)NC(=O)[C@@H](NC(=O)CNC(=O)[C@H](CCC(=O)O)NC(=O)C(C)(C)NC(=O)[C@@H](N)Cc1ccc(O)cc1)[C@@H](C)O)[C@@H](C)CC)[C@@H](C)CC)C(=O)N[C@@H](Cc1c[nH]cn1)C(=O)N[C@@H](CCC(N)=O)C(=O)NC(C)(C)C(=O)N[C@@H](CC(=O)O)C(=O)N[C@@H](Cc1ccccc1)C(=O)N[C@H](C(=O)N[C@@H](CCC(=O)O)C(=O)N[C@@H](Cc1ccncc1)C(=O)N[C@@H](CCCCNC(=O)COCCOCCNC(=O)COCCOCCNC(=O)CC[C@H](NC(=O)CCCCCCCCCCCCCCCCC(=O)O)C(=O)O)C(=O)N[C@@H](CC(C)C)C(=O)N[C@@H](CCC(=O)O)C(=O)NCC(=O)NCC(=O)N1CCC[C@H]1C(=O)N[C@@H](CO)C(=O)N[C@@H](CO)C(=O)NCC(=O)N[C@@H](C)C(=O)N1CCC[C@H]1C(=O)N1CCC[C@H]1C(=O)N1CCC[C@H]1C(=O)N[C@@H](CO)C(N)=O)C(C)C) [Example 111] | 0.0871 |
| Y[Aib]EGTFISDYSI[αMeL]LDKIHQ[Aib]DFVE[4Pal]K([AEEA-AEEA-γGlu-C20 diacid])LEGGPSSGAPPPS-NH2 (N-terminus assumed; SMILES CC[C@H](C)[C@H](NC(=O)[C@H](CCCCN)NC(=O)[C@H](CC(=O)O)NC(=O)[C@H](CC(C)C)NC(=O)[C@](C)(CC(C)C)NC(=O)[C@@H](NC(=O)[C@H](CO)NC(=O)[C@H](Cc1ccc(O)cc1)NC(=O)[C@H](CC(=O)O)NC(=O)[C@H](CO)NC(=O)[C@@H](NC(=O)[C@H](Cc1ccccc1)NC(=O)[C@@H](NC(=O)CNC(=O)[C@H](CCC(=O)O)NC(=O)C(C)(C)NC(=O)[C@@H](N)Cc1ccc(O)cc1)[C@@H](C)O)[C@@H](C)CC)[C@@H](C)CC)C(=O)N[C@@H](Cc1c[nH]cn1)C(=O)N[C@@H](CCC(N)=O)C(=O)NC(C)(C)C(=O)N[C@@H](CC(=O)O)C(=O)N[C@@H](Cc1ccccc1)C(=O)N[C@H](C(=O)N[C@@H](CCC(=O)O)C(=O)N[C@@H](Cc1ccncc1)C(=O)N[C@@H](CCCCNC(=O)COCCOCCNC(=O)COCCOCCNC(=O)CC[C@H](NC(=O)CCCCCCCCCCCCCCCCCCC(=O)O)C(=O)O)C(=O)N[C@@H](CC(C)C)C(=O)N[C@@H](CCC(=O)O)C(=O)NCC(=O)NCC(=O)N1CCC[C@H]1C(=O)N[C@@H](CO)C(=O)N[C@@H](CO)C(=O)NCC(=O)N[C@@H](C)C(=O)N1CCC[C@H]1C(=O)N1CCC[C@H]1C(=O)N1CCC[C@H]1C(=O)N[C@@H](CO)C(N)=O)C(C)C) [Example 109] | 0.117 |
| Y[Aib]EGTFISDYSI[αMeL]LD[Orn]IHQ[Aib]DFVE[4Pal]K([AEEA-AEEA-γGlu-C20 diacid])LEGGPSSGAPPPS-NH2 (N-terminus assumed; SMILES CC[C@H](C)[C@H](NC(=O)[C@H](CCCN)NC(=O)[C@H](CC(=O)O)NC(=O)[C@H](CC(C)C)NC(=O)[C@](C)(CC(C)C)NC(=O)[C@@H](NC(=O)[C@H](CO)NC(=O)[C@H](Cc1ccc(O)cc1)NC(=O)[C@H](CC(=O)O)NC(=O)[C@H](CO)NC(=O)[C@@H](NC(=O)[C@H](Cc1ccccc1)NC(=O)[C@@H](NC(=O)CNC(=O)[C@H](CCC(=O)O)NC(=O)C(C)(C)NC(=O)[C@@H](N)Cc1ccc(O)cc1)[C@@H](C)O)[C@@H](C)CC)[C@@H](C)CC)C(=O)N[C@@H](Cc1c[nH]cn1)C(=O)N[C@@H](CCC(N)=O)C(=O)NC(C)(C)C(=O)N[C@@H](CC(=O)O)C(=O)N[C@@H](Cc1ccccc1)C(=O)N[C@H](C(=O)N[C@@H](CCC(=O)O)C(=O)N[C@@H](Cc1ccncc1)C(=O)N[C@@H](CCCCNC(=O)COCCOCCNC(=O)COCCOCCNC(=O)CC[C@H](NC(=O)CCCCCCCCCCCCCCCCCCC(=O)O)C(=O)O)C(=O)N[C@@H](CC(C)C)C(=O)N[C@@H](CCC(=O)O)C(=O)NCC(=O)NCC(=O)N1CCC[C@H]1C(=O)N[C@@H](CO)C(=O)N[C@@H](CO)C(=O)NCC(=O)N[C@@H](C)C(=O)N1CCC[C@H]1C(=O)N1CCC[C@H]1C(=O)N1CCC[C@H]1C(=O)N[C@@H](CO)C(N)=O)C(C)C) [Example 108] | 0.134 |
